Earlier results on one substance are cited in publication PMC6063947.

For this data set, the target named is Asp61 (UniProt position 61, VMGLVDAIPMI). Description: NMR.

Turning to “ATP synthase subunit c (F0 sector, proteolipid) (Escherichia coli)”, the pKa is listed as 7.1.

Usually pKa stands for the pH at which an ionisable group is half protonated.
